Reference: paper PMC6896899

Biological target: megalin (human (endogenous in primary PTECs)) (UniProt P98164)
Chain of UniProt P98164 (P98164 26-4655): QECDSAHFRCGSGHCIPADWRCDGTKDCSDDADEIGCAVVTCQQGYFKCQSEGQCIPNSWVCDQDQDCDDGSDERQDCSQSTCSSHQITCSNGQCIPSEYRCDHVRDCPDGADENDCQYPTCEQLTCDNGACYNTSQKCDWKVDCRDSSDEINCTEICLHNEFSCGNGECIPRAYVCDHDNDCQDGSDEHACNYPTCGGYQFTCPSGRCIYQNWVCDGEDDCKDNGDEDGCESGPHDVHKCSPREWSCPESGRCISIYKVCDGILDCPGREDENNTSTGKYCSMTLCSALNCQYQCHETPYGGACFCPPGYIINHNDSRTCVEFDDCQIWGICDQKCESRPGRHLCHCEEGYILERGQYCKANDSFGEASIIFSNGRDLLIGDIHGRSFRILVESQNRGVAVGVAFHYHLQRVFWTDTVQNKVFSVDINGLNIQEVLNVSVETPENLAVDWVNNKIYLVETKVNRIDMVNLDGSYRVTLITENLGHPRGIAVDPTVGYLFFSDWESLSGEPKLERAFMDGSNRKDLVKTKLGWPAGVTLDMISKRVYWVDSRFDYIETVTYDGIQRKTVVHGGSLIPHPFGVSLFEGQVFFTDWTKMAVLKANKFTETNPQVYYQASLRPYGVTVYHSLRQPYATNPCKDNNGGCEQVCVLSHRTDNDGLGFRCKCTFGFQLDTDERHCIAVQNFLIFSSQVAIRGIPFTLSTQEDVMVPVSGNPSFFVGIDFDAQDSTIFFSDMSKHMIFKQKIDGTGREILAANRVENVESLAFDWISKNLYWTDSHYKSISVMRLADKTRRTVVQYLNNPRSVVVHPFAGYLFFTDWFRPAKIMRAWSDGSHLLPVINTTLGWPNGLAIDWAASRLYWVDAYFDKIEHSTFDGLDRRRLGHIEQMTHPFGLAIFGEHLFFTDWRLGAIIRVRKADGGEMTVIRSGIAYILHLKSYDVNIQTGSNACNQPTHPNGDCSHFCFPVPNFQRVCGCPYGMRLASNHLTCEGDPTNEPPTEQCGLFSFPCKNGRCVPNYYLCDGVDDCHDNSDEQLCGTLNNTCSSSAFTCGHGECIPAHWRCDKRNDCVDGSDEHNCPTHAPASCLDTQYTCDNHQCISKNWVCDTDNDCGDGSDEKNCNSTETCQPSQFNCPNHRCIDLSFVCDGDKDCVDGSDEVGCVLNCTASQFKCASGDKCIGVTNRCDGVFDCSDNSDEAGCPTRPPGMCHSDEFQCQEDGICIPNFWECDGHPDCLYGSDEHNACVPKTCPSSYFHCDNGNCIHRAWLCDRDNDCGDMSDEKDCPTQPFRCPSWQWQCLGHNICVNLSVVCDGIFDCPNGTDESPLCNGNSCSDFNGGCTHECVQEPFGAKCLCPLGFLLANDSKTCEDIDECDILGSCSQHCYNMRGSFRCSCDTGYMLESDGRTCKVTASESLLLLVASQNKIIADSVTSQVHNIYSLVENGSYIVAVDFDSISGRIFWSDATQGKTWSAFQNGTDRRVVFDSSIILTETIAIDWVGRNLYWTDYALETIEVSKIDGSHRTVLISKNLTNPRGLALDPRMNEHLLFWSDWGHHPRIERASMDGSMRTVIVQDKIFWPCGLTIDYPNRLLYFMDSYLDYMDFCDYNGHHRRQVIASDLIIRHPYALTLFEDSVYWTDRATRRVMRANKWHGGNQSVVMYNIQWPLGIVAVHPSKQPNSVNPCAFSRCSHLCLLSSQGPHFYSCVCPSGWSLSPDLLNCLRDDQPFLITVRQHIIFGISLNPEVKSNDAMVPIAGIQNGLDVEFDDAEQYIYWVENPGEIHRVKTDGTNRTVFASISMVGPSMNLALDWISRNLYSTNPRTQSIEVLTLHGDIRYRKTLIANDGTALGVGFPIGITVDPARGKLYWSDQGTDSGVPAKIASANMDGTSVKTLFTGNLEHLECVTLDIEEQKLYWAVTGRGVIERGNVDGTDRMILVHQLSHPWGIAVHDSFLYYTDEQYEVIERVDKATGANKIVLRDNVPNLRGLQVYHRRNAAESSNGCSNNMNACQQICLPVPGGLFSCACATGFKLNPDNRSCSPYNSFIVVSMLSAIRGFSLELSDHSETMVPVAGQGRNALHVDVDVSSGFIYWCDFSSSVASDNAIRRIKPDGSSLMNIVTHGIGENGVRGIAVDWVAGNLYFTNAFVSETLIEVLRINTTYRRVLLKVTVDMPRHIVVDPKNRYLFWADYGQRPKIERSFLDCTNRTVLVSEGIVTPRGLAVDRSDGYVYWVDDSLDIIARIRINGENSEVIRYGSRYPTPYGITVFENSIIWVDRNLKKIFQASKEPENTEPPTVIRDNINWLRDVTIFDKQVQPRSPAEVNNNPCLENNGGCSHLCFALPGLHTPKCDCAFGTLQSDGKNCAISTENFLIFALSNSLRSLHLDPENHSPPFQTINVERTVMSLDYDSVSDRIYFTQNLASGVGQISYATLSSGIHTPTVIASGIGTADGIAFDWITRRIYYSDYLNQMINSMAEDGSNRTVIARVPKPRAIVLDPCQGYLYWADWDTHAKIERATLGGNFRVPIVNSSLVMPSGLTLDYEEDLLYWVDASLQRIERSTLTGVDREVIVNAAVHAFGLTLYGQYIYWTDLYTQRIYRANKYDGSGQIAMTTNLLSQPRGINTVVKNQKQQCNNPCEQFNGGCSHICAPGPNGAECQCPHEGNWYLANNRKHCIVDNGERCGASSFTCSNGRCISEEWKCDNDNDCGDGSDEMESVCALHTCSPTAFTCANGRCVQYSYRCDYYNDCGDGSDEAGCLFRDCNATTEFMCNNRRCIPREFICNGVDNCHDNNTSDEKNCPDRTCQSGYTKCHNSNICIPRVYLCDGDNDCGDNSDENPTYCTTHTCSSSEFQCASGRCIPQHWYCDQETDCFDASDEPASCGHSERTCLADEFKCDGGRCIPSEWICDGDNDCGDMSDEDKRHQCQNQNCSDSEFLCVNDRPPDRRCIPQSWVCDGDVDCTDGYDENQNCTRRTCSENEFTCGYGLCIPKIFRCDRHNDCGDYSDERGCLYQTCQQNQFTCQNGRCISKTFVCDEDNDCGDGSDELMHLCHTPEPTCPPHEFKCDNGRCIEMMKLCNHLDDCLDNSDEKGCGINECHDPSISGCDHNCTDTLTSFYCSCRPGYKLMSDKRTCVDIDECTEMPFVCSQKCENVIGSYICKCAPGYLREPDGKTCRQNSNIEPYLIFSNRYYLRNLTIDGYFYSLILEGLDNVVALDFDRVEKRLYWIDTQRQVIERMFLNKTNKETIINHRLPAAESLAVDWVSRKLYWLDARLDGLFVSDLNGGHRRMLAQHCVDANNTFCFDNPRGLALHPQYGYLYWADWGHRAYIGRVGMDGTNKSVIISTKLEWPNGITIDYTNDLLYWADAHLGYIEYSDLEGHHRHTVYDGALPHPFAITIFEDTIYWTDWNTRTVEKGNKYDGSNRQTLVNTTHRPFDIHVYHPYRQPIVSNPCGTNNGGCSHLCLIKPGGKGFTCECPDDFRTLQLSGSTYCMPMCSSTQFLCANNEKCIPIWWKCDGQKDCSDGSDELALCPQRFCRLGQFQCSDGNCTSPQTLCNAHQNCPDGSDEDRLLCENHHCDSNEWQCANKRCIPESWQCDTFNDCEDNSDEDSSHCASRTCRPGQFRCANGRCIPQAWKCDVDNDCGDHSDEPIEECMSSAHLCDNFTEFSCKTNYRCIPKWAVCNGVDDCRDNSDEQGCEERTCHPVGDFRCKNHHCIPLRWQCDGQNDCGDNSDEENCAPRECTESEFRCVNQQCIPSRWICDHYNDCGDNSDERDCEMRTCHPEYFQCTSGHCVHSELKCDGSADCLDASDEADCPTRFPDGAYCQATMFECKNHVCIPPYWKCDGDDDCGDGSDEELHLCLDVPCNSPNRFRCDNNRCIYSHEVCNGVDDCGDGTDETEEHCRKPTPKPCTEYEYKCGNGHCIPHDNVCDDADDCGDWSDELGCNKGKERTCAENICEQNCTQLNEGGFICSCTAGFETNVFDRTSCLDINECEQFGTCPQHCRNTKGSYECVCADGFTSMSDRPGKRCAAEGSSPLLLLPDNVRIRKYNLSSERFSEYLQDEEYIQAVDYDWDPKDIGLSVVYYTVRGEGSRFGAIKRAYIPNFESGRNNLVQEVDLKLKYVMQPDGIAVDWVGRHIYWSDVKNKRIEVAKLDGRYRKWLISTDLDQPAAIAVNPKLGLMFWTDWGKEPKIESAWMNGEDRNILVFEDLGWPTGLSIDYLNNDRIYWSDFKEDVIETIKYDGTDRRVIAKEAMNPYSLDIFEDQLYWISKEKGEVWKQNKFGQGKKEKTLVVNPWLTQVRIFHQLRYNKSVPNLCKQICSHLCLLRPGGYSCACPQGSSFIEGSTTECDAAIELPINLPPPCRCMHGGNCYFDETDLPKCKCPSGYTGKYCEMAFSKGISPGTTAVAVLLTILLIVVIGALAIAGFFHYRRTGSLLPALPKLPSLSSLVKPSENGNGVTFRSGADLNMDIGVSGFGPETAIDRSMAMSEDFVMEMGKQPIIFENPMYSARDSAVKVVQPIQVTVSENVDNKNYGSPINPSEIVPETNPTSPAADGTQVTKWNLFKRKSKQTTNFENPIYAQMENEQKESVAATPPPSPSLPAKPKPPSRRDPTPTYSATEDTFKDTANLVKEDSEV

“Mixed type human vitamin D binding protein (from UniProt P02774 17-474) (natural protein)” was tested, and the intrinsic clearance of 25OHD3 loss (CLint,25OHD3) from the perfusion medium of the PT-MPS with 3 uM DBP; fold-change with 1 uM RAP (megalin inhibitor) against no RAP, geometric mean of 5 donors (fold reduction) was 2.4.
